Measurements taken from PMC12416549 (2024).
Substitutions are numbered along the chain they refer to. Names and notes keep the numbering of the source.

Target: T1, TNFR1 (Homo sapiens, UniProt P19438)
T1 chain: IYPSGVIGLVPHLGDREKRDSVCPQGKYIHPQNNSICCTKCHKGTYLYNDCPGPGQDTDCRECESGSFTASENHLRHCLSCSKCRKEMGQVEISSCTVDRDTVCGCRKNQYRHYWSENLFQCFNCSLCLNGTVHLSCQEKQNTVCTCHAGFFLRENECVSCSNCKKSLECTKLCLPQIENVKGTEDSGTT
Assay: yeast display SC50

B1: F39S (designed binder)
chain: SMEEEVEKAAKEYEKKKKEAIEKHLEKLKAKDKEAAERSLKELEEAAKEYAKDEAKTMSEEEAKRRAKKYKEKVLLSELSEEEQKEIKEAEEKLVRTILKYVEEAAK
- apparent Kd (screen): 7.07 nM

B2: H24T (designed binder)
chain: B1 chain with H24T, S39F
- apparent Kd (screen): 1.16 nM

B3: K18I (designed binder)
chain: B1 chain with K18I, S39F
- apparent Kd (screen): 0.653 nM

B4: E61D (designed binder)
chain: B1 chain with S39F, E61D
- apparent Kd (screen): 1.05 nM

B5: A67K (designed binder)
chain: B1 chain with S39F, A67K
- apparent Kd (screen): 1.54 nM

B6: D53E (designed binder)
chain: B1 chain with S39F, D53E
- apparent Kd (screen): 0.718 nM

B7: A20F (designed binder)
chain: B1 chain with A20F, S39F
- apparent Kd (screen): 0.446 nM

B8: F39I (designed binder)
chain: B1 chain with S39I
- apparent Kd (screen): 3.99 nM

B9: K41Y (designed binder)
chain: B1 chain with S39F, K41Y
- apparent Kd (screen): 0.446 nM

B10: A36I (designed binder)
chain: B1 chain with A36I, S39F
- apparent Kd (screen): 1.54 nM

B11: A47P (designed binder)
chain: B1 chain with S39F, A47P
- apparent Kd (screen): 10.4 nM

B12: K71A (designed binder)
chain: B1 chain with S39F, K71A
- apparent Kd (screen): 0.446 nM

B13: K17A (designed binder)
chain: B1 chain with K17A, S39F
- apparent Kd (screen): 1.86 nM

B14: E92V (designed binder)
chain: B1 chain with S39F, E92V
- apparent Kd (screen): 12.5 nM

B15: M58A (designed binder)
chain: B1 chain with S39F, M58A
- apparent Kd (screen): 10.4 nM

B16: S59K (designed binder)
chain: B1 chain with S39F, S59K
- apparent Kd (screen): 1.05 nM

B17: E104F (designed binder)
chain: B1 chain with S39F, E104F
- apparent Kd (screen): 0.593 nM

B18: L25Q (designed binder)
chain: B1 chain with L25Q, S39F
- apparent Kd (screen): 1.54 nM

B19: E62Y (designed binder)
chain: B1 chain with S39F, E62Y
- apparent Kd (screen): 0.869 nM

B20: E62L (designed binder)
chain: B1 chain with S39F, E62L
- apparent Kd (screen): 0.653 nM

B21: A51G (designed binder)
chain: B1 chain with S39F, A51G
- apparent Kd (screen): 2.05 nM

B22: E26A (designed binder)
chain: B1 chain with E26A, S39F
- apparent Kd (screen): 1.05 nM

B23: A20Y (designed binder)
chain: B1 chain with A20Y, S39F
- apparent Kd (screen): 0.446 nM

B24: A106C (designed binder)
chain: B1 chain with S39F, A106C
- apparent Kd (screen): 3 nM

B25: K64V (designed binder)
chain: B1 chain with S39F, K64V
- apparent Kd (screen): 0.653 nM

B26: K23W (designed binder)
chain: B1 chain with K23W, S39F
- apparent Kd (screen): 0.956 nM

B27: K85C (designed binder)
chain: B1 chain with S39F, K85C
- apparent Kd (screen): 0.539 nM

B28: T97I (designed binder)
chain: B1 chain with S39F, T97I
- apparent Kd (screen): 2.05 nM

B29: I87H (designed binder)
chain: B1 chain with S39F, I87H
- apparent Kd (screen): 2.25 nM

B30: K15R (designed binder)
chain: B1 chain with K15R, S39F
- apparent Kd (screen): 0.593 nM

B31: E91N (designed binder)
chain: B1 chain with S39F, E91N
- apparent Kd (screen): 0.653 nM

B32: K33E (designed binder)
chain: B1 chain with K33E, S39F
- apparent Kd (screen): 0.539 nM

B33: K11M (designed binder)
chain: B1 chain with K11M, S39F
- apparent Kd (screen): 0.446 nM

B34: E83Y (designed binder)
chain: B1 chain with S39F, E83Y
- apparent Kd (screen): 2.05 nM

B35: E12T (designed binder)
chain: B1 chain with E12T, S39F
- apparent Kd (screen): 1.05 nM

B36: A67G (designed binder)
chain: B1 chain with S39F, A67G
- apparent Kd (screen): 0.49 nM

B37: A55R (designed binder)
chain: B1 chain with S39F, A55R
- apparent Kd (screen): 1.05 nM

B38: E89W (designed binder)
chain: B1 chain with S39F, E89W
- apparent Kd (screen): 1.69 nM

B39: A46S (designed binder)
chain: B1 chain with S39F, A46S
- apparent Kd (screen): 0.49 nM

B40: S59P (designed binder)
chain: B1 chain with S39F, S59P
- apparent Kd (screen): 0.446 nM

B41: S1D (designed binder)
chain: B1 chain with S1D, S39F
- apparent Kd (screen): 0.446 nM

B42: L79T (designed binder)
chain: B1 chain with S39F, L79T
- apparent Kd (screen): 1.86 nM

B43: E60A (designed binder)
chain: B1 chain with S39F, E60A
- apparent Kd (screen): 0.956 nM

B44: K68I (designed binder)
chain: B1 chain with S39F, K68I
- apparent Kd (screen): 0.869 nM

B45: E45K (designed binder)
chain: B1 chain with S39F, E45K
- apparent Kd (screen): 12.5 nM

B46: V102H (designed binder)
chain: B1 chain with S39F, V102H
- apparent Kd (screen): 0.49 nM

B47: K56I (designed binder)
chain: B1 chain with S39F, K56I
- apparent Kd (screen): 2.73 nM

B48: A55H (designed binder)
chain: B1 chain with S39F, A55H
- apparent Kd (screen): 12.5 nM

B49: L40W (designed binder)
chain: B1 chain with S39F, L40W
- apparent Kd (screen): 0.49 nM

B50: D53M (designed binder)
chain: B1 chain with S39F, D53M
- apparent Kd (screen): 4.83 nM

B51: L79R (designed binder)
chain: B1 chain with S39F, L79R
- apparent Kd (screen): 13.8 nM

B52: A55N (designed binder)
chain: B1 chain with S39F, A55N
- apparent Kd (screen): 11.4 nM

B53: A36W (designed binder)
chain: B1 chain with A36W, S39F
- apparent Kd (screen): 0.446 nM

B54: E19A (designed binder)
chain: B1 chain with E19A, S39F
- apparent Kd (screen): 0.869 nM

B55: K33W (designed binder)
chain: B1 chain with K33W, S39F
- apparent Kd (screen): 0.869 nM
